The subject of the test is wild-type Dda. The experiment in a line: Dda-dependent DNA unwinding assay with gp32 variants (fluorescein-quenched replication fork substrate, no annealing trap). It is filed as biochemical, bacteriophage T4. To be noted: 375 nM gp32 variant, 25 nM wild-type Dda, 25 nM substrate, 2.5 mM ATP, triplicate experiments; for Rate constant of product formation (single exponential fit): 5 mM Mg(OAc)2, pH 7.5, room temperature, fluorescein fluorescence; for Amplitude of the product formation curve (fluorescence): higher amplitude = more effective prevention of reannealing. As for the experimental part:
A partial duplex substrate mimicking a replication fork was prepared by mixing equimolar concentrations of the following oligonucleotides: loading strand - […]/36-FAM/, displaced strand - […], and leading strand - […] in 10 mM HEPES/1 mM EDTA. The sample was heated to 95°C for 5 min, followed by slowly cooling to room temperature. All concentrations are final, after mixing. ATP (2.5 mM), Mg(OAc)2 (5 mM) and gp32 (375 nM) in assay buffer (25 mM HEPES, pH 7.5, 10 mM KOAc, 0.1 mM EDTA, 2 mM β-mercaptoethanol, 1 mg/ml bovine serum albumin and 4 mM phosphoenol pyruvate) were mixed and added to wells in one row of a black 96-well plate. The reactions were initiated by adding 25 nM substrate, 25 nM wild-type Dda and 5 U/ml pyruvate kinase/lactate dehydrogenase in assay buffer with a multichannel pipette to the entire row simultaneously. Fluorescein fluorescence was measured 8 times per minute in a VICTOR Nivo Multimode Plate Reader (Perkin Elmer) at room temperature with excitation through a 480/30 nm bandpass filter and emission measured after a 530/30 nm bandpass filter.

B1: gp32 A255E/L262A: full-length gp32 variant A255E/L262A designed to reduce gp32–Dda interactions (protein)
chain: MFKRKSTAELAAQMAKLNGNKGFSSEDKGEWKLKLDNAGNGQAVIRFLPSKNDEQAPFAILVNHGFKKNGKWYIETCSSTHGDYDSCPVCQYISKNDLYNTDNKEYSLVKRKTSYWANILVVKDPAAPENEGKVFKYRFGKKIWDKINAMIAVDVEMGETPVDVTCPWEGANFVLKVKQVSGFSNYDESKFLNQSAIPNIDDESFQKELFEQMVDLSEMTSKDKFKSFEELNTKFGQVMGTAVMGGAAATAAKKEDKVADDADAFNVDDFNTKTEDDFMSSSSGSSSSADDTDLDDLLNDL
modifications: left off: 6xHis, N-terminal, state not stated
Turning to B1, the “Rate constant of product formation (single exponential fit)” value (“Rate constant of product formation” below) was 0.023 s⁻¹ and the “Amplitude of the product formation curve (fluorescence)” value (from here on “Amplitude”) is 130 000.

B2: gp32 V258E/F265A: full-length gp32 variant V258E/F265A designed to reduce gp32–Dda interactions (protein)
chain: MFKRKSTAELAAQMAKLNGNKGFSSEDKGEWKLKLDNAGNGQAVIRFLPSKNDEQAPFAILVNHGFKKNGKWYIETCSSTHGDYDSCPVCQYISKNDLYNTDNKEYSLVKRKTSYWANILVVKDPAAPENEGKVFKYRFGKKIWDKINAMIAVDVEMGETPVDVTCPWEGANFVLKVKQVSGFSNYDESKFLNQSAIPNIDDESFQKELFEQMVDLSEMTSKDKFKSFEELNTKFGQVMGTAVMGGAAATAAKKADKEADDLDAANVDDFNTKTEDDFMSSSSGSSSSADDTDLDDLLNDL
modifications: left off: 6xHis, N-terminal, state not stated
On to B2, for which the “Rate constant of product formation” value is 0.026 s⁻¹ and the “Amplitude” value was 87 000.

B3: gp32-B: gp32 lacking the N-terminal region (residues 21–301) (protein)
chain: KGFSSEDKGEWKLKLDNAGNGQAVIRFLPSKNDEQAPFAILVNHGFKKNGKWYIETCSSTHGDYDSCPVCQYISKNDLYNTDNKEYSLVKRKTSYWANILVVKDPAAPENEGKVFKYRFGKKIWDKINAMIAVDVEMGETPVDVTCPWEGANFVLKVKQVSGFSNYDESKFLNQSAIPNIDDESFQKELFEQMVDLSEMTSKDKFKSFEELNTKFGQVMGTAVMGGAAATAAKKADKVADDLDAFNVDDFNTKTEDDFMSSSSGSSSSADDTDLDDLLNDL
modifications: left off: 6xHis, N-terminal, state not stated
As for B3, the “Rate constant of product formation” value was determined as 0.013 s⁻¹ and the “Amplitude” value is on record as 200 000.

B4: gp32-A: gp32 lacking the C-terminal region (residues 1–254) (protein)
chain: MFKRKSTAELAAQMAKLNGNKGFSSEDKGEWKLKLDNAGNGQAVIRFLPSKNDEQAPFAILVNHGFKKNGKWYIETCSSTHGDYDSCPVCQYISKNDLYNTDNKEYSLVKRKTSYWANILVVKDPAAPENEGKVFKYRFGKKIWDKINAMIAVDVEMGETPVDVTCPWEGANFVLKVKQVSGFSNYDESKFLNQSAIPNIDDESFQKELFEQMVDLSEMTSKDKFKSFEELNTKFGQVMGTAVMGGAAATAAKK
modifications: left off: 6xHis, N-terminal, state not stated
B4: the “Rate constant of product formation” value was determined as 0.021 s⁻¹ and the “Amplitude” value is 86 000.

The record behind these values is article PMC11551737, “Structural and functional insights into the interaction between the bacteriophage T4 DNA processing proteins gp32 and Dda” (Nucleic Acids Research, 2024).
